B1: … (peptide)
peptide: VFPRLHNVLF
B2: … (peptide)
peptide: VYFKAGLDVF
B3: … (peptide)
peptide: LYLENNAQTQF
B4: … (peptide)
peptide: IYNETVRDLL
B5: … (peptide)
peptide: VYRVYVTTF
B6: … (peptide)
peptide: VYALKVRTI
B7: … (peptide)
peptide: VFSRDFGLLVF
B8: … (peptide)
peptide: SYNGHLTIWF
B9: … (peptide)
peptide: RYLNKSFVL
B10: … (peptide)
peptide: LYSPVPFTL
B11: … (peptide)
peptide: LYSELNKWSF
B12: … (peptide)
peptide: IYRFITERF
B13: … (peptide)
peptide: LYSDAFKFIVF
B14: … (peptide)
peptide: VYPFENFEF
B15: … (peptide)
peptide: EYLDRIGQLFF
B16: … (peptide)
peptide: SYLKAVFNL
B17: … (peptide)
peptide: VYQSLSNSL
B18: … (peptide)
peptide: QYLTAAALHNL
B19: … (peptide)
peptide: DYIPASGFALF
B20: … (peptide)
peptide: RYGLPAAWSTF
B21: … (peptide)
peptide: PYLVVIHTL
B22: … (peptide)
peptide: VFIHHLPQF
B23: … (peptide)
peptide: IYNETITDLL
B24: … (peptide)
peptide: KYFPYLVVI
B25: … (peptide)
peptide: IYSFHTLSF
B26: … (peptide)
peptide: TYIPVGLGRLL
B27: … (peptide)
peptide: EYFTPLLSGQF
B28: … (peptide)
peptide: YYLSDSPLL
B29: … (peptide)
peptide: KYPDIVQQF
B30: … (peptide)
peptide: GYKTFFNEF
B31: … (peptide)
peptide: VYIESRIGTSTSF
B32: … (peptide)
peptide: NYIPVKNGKQF
B33: … (peptide)
peptide: IYQYVADNF
B34: … (peptide)
peptide: PYLQDVPRI
B35: … (peptide)
peptide: IYNFVESKL
B36: … (peptide)
peptide: LYSELTETL
B37: … (peptide)
peptide: VYEKNGYIYF
B38: … (peptide)
peptide: TYPDGTYTGRIF
B39: … (peptide)
peptide: IFGIFPNQF
B40: … (peptide)
peptide: VYVQILQKL
B41: … (peptide)
peptide: AYIKGGWIL
B42: … (peptide)
peptide: IYEETRGVL
B43: … (peptide)
peptide: RYSTFSEIF
B44: … (peptide)
peptide: QYFTGNPLF
B45: … (peptide)
peptide: RYGFYYVEF
B46: … (peptide)
peptide: AYIPTPIYF
B47: … (peptide)
peptide: EYLSTCSKL
B48: … (peptide)
peptide: KYIFQLNEI
B49: … (peptide)
peptide: RYLEAALRL
B50: … (peptide)
peptide: GYNPNRVFF
B51: … (peptide)
peptide: FYINGQYQF
B52: … (peptide)
peptide: NYYERIHAL
B53: … (peptide)
peptide: IYLSDLTYI
B54: … (peptide)
peptide: NYITGKGDVF
B55: … (peptide)
peptide: EYQARIPEF
B56: … (peptide)
peptide: VYPVVLNQI
B57: … (peptide)
peptide: FYVNVKEQF
B58: … (peptide)
peptide: TYTNTLERL
B59: … (peptide)
peptide: KYLNSVQYI
B60: … (peptide)
peptide: SYPKIIEEF
B61: … (peptide)
peptide: RYGDGGSSF
B62: … (peptide)
peptide: NYEDHFPLL
B63: … (peptide)
peptide: KYLQVVGMF
B64: … (peptide)
peptide: LYLAFPLAF
B65: … (peptide)
peptide: SYLNHLNNL
B66: … (peptide)
peptide: IYPEWPVVFF
B67: … (peptide)
peptide: IYQFVADSF
B68: … (peptide)
peptide: KYLMELTLI
B69: … (peptide)
peptide: PYFFANQEF
B70: … (peptide)
peptide: HYVPATKVF
B71: … (peptide)
peptide: KYLEDMKTYF
B72: … (peptide)
peptide: RYVEGIVSL
B73: … (peptide)
peptide: VYPPYLNYL
B74: … (peptide)
peptide: NYSSAVQKF
B75: … (peptide)
peptide: TYGMVMVTF

Biological target: HLA-A*24 (human)
Experiment: UV-exchange ELISA (anti-b2m); yield 50%-75%

**Q.** How did the peptide exchange yield turn out when B1 was run?
**A.** The peptide exchange yield was 50 to 75%.

**Q.** With B2 as the binder, how does the peptide exchange yield read?
**A.** The peptide exchange yield was 50 to 75%.

**Q.** With B3 as the binder, how does the peptide exchange yield read?
**A.** The peptide exchange yield was 50 to 75%.

**Q.** B4 was tested. Which peptide exchange yield did it give?
**A.** The peptide exchange yield was 50 to 75%.

**Q.** B5 was tested. Which peptide exchange yield did it give?
**A.** The peptide exchange yield was 50 to 75%.

**Q.** B6 was tested. Which peptide exchange yield did it give?
**A.** Its peptide exchange yield is 50 to 75%.

**Q.** With B7 as the binder, how does the peptide exchange yield read?
**A.** The peptide exchange yield was 50 to 75%.

**Q.** For B8, which peptide exchange yield is on record?
**A.** Its peptide exchange yield is 50 to 75%.

**Q.** For B9, which peptide exchange yield is on record?
**A.** Its peptide exchange yield is 50 to 75%.

**Q.** How did the peptide exchange yield turn out when B10 was run?
**A.** Its peptide exchange yield is 50 to 75%.

**Q.** B11 was tested. Which peptide exchange yield did it give?
**A.** Its peptide exchange yield is 50 to 75%.

**Q.** With B12 as the binder, how does the peptide exchange yield read?
**A.** The peptide exchange yield was 50 to 75%.

**Q.** Which peptide exchange yield does the source give for B13 here?
**A.** Its peptide exchange yield is 50 to 75%.

**Q.** Which peptide exchange yield does the source give for B14 here?
**A.** Its peptide exchange yield is 50 to 75%.

**Q.** For B15, which peptide exchange yield is on record?
**A.** The peptide exchange yield was 50 to 75%.

**Q.** How did the peptide exchange yield turn out when B16 was run?
**A.** The peptide exchange yield was 50 to 75%.

**Q.** How did the peptide exchange yield turn out when B17 was run?
**A.** The peptide exchange yield was 50 to 75%.

**Q.** How did the peptide exchange yield turn out when B18 was run?
**A.** Its peptide exchange yield is 50 to 75%.

**Q.** B19 was tested. Which peptide exchange yield did it give?
**A.** Its peptide exchange yield is 50 to 75%.

**Q.** Which peptide exchange yield does the source give for B20 here?
**A.** Its peptide exchange yield is 50 to 75%.

**Q.** For B21, which peptide exchange yield is on record?
**A.** The peptide exchange yield was 50 to 75%.

**Q.** How did the peptide exchange yield turn out when B22 was run?
**A.** Its peptide exchange yield is 50 to 75%.

**Q.** With B23 as the binder, how does the peptide exchange yield read?
**A.** The peptide exchange yield was 50 to 75%.

**Q.** With B24 as the binder, how does the peptide exchange yield read?
**A.** The peptide exchange yield was 50 to 75%.

**Q.** For B25, which peptide exchange yield is on record?
**A.** The peptide exchange yield was 50 to 75%.

**Q.** How did the peptide exchange yield turn out when B26 was run?
**A.** Its peptide exchange yield is 50 to 75%.

**Q.** B27 was tested. Which peptide exchange yield did it give?
**A.** Its peptide exchange yield is 50 to 75%.

**Q.** B28 was tested. Which peptide exchange yield did it give?
**A.** The peptide exchange yield was 50 to 75%.

**Q.** With B29 as the binder, how does the peptide exchange yield read?
**A.** Its peptide exchange yield is 50 to 75%.

**Q.** How did the peptide exchange yield turn out when B30 was run?
**A.** Its peptide exchange yield is 50 to 75%.

**Q.** With B31 as the binder, how does the peptide exchange yield read?
**A.** The peptide exchange yield was 50 to 75%.

**Q.** For B32, which peptide exchange yield is on record?
**A.** The peptide exchange yield was 50 to 75%.

**Q.** Which peptide exchange yield does the source give for B33 here?
**A.** Its peptide exchange yield is 50 to 75%.

**Q.** For B34, which peptide exchange yield is on record?
**A.** Its peptide exchange yield is 50 to 75%.

**Q.** How did the peptide exchange yield turn out when B35 was run?
**A.** The peptide exchange yield was 50 to 75%.

**Q.** Which peptide exchange yield does the source give for B36 here?
**A.** The peptide exchange yield was 50 to 75%.

**Q.** B37 was tested. Which peptide exchange yield did it give?
**A.** The peptide exchange yield was 50 to 75%.

**Q.** With B38 as the binder, how does the peptide exchange yield read?
**A.** The peptide exchange yield was 50 to 75%.

**Q.** For B39, which peptide exchange yield is on record?
**A.** Its peptide exchange yield is 50 to 75%.

**Q.** B40 was tested. Which peptide exchange yield did it give?
**A.** Its peptide exchange yield is 50 to 75%.

**Q.** For B41, which peptide exchange yield is on record?
**A.** Its peptide exchange yield is 50 to 75%.

**Q.** With B42 as the binder, how does the peptide exchange yield read?
**A.** Its peptide exchange yield is 50 to 75%.

**Q.** For B43, which peptide exchange yield is on record?
**A.** The peptide exchange yield was 50 to 75%.

**Q.** With B44 as the binder, how does the peptide exchange yield read?
**A.** The peptide exchange yield was 50 to 75%.

**Q.** How did the peptide exchange yield turn out when B45 was run?
**A.** Its peptide exchange yield is 50 to 75%.

**Q.** Which peptide exchange yield does the source give for B46 here?
**A.** The peptide exchange yield was 50 to 75%.

**Q.** B47 was tested. Which peptide exchange yield did it give?
**A.** Its peptide exchange yield is 50 to 75%.

**Q.** With B48 as the binder, how does the peptide exchange yield read?
**A.** Its peptide exchange yield is 50 to 75%.

**Q.** Which peptide exchange yield does the source give for B49 here?
**A.** The peptide exchange yield was 50 to 75%.

**Q.** B50 was tested. Which peptide exchange yield did it give?
**A.** Its peptide exchange yield is 50 to 75%.

**Q.** With B51 as the binder, how does the peptide exchange yield read?
**A.** The peptide exchange yield was 50 to 75%.

**Q.** For B52, which peptide exchange yield is on record?
**A.** The peptide exchange yield was 50 to 75%.

**Q.** Which peptide exchange yield does the source give for B53 here?
**A.** Its peptide exchange yield is 50 to 75%.

**Q.** Which peptide exchange yield does the source give for B54 here?
**A.** The peptide exchange yield was 50 to 75%.

**Q.** How did the peptide exchange yield turn out when B55 was run?
**A.** Its peptide exchange yield is 50 to 75%.

**Q.** Which peptide exchange yield does the source give for B56 here?
**A.** Its peptide exchange yield is 50 to 75%.

**Q.** Which peptide exchange yield does the source give for B57 here?
**A.** The peptide exchange yield was 50 to 75%.

**Q.** For B58, which peptide exchange yield is on record?
**A.** The peptide exchange yield was 50 to 75%.

**Q.** How did the peptide exchange yield turn out when B59 was run?
**A.** The peptide exchange yield was 50 to 75%.

**Q.** Which peptide exchange yield does the source give for B60 here?
**A.** Its peptide exchange yield is 50 to 75%.

**Q.** Which peptide exchange yield does the source give for B61 here?
**A.** The peptide exchange yield was 50 to 75%.

**Q.** Which peptide exchange yield does the source give for B62 here?
**A.** The peptide exchange yield was 50 to 75%.

**Q.** Which peptide exchange yield does the source give for B63 here?
**A.** The peptide exchange yield was 50 to 75%.

**Q.** With B64 as the binder, how does the peptide exchange yield read?
**A.** The peptide exchange yield was 50 to 75%.

**Q.** How did the peptide exchange yield turn out when B65 was run?
**A.** Its peptide exchange yield is 50 to 75%.

**Q.** How did the peptide exchange yield turn out when B66 was run?
**A.** The peptide exchange yield was 50 to 75%.

**Q.** Which peptide exchange yield does the source give for B67 here?
**A.** The peptide exchange yield was 50 to 75%.

**Q.** With B68 as the binder, how does the peptide exchange yield read?
**A.** Its peptide exchange yield is 50 to 75%.

**Q.** Which peptide exchange yield does the source give for B69 here?
**A.** Its peptide exchange yield is 50 to 75%.

**Q.** How did the peptide exchange yield turn out when B70 was run?
**A.** The peptide exchange yield was 50 to 75%.

**Q.** For B71, which peptide exchange yield is on record?
**A.** The peptide exchange yield was 50 to 75%.

**Q.** For B72, which peptide exchange yield is on record?
**A.** The peptide exchange yield was 50 to 75%.

**Q.** With B73 as the binder, how does the peptide exchange yield read?
**A.** The peptide exchange yield was 50 to 75%.

**Q.** Which peptide exchange yield does the source give for B74 here?
**A.** Its peptide exchange yield is 50 to 75%.

**Q.** B75 was tested. Which peptide exchange yield did it give?
**A.** Its peptide exchange yield is 50 to 75%.

Source: patent US20170056486A1
